Assay results: publication PMC8789040

How the values were obtained:
[1] = target: LS4 (Archaeoglobus fulgidus scaffold, laboratory-evolved) (UniProt O29494); assay: EMSA; details: titration regime; SPR: 10 mM HEPES pH 7.4, 150 mM NaCl, 1 mM MgCl2, 0.05% P20, 0.25 mM TCEP, 0.1 mg/ml BSA, 25 ug/ml yeast tRNA, 25 C; EMSA: 10 mM HEPES-KOH pH 7.5, 140 mM KCl …
[2] = target: T1, LS12 E34S (Archaeoglobus fulgidus scaffold, laboratory-evolved) (UniProt O29494); assay: EMSA; details: titration regime; SPR: 10 mM HEPES pH 7.4, 150 mM NaCl, 1 mM MgCl2, 0.05% P20, 0.25 mM TCEP, 0.1 mg/ml BSA, 25 ug/ml yeast tRNA, 25 C; EMSA: 10 mM HEPES-KOH pH 7.5, 140 mM KCl …
T1 sequence: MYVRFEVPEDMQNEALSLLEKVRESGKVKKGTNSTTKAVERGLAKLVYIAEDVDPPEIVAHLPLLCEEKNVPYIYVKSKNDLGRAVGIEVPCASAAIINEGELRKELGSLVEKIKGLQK

[3] = target: LS4 (Archaeoglobus fulgidus scaffold, laboratory-evolved) (UniProt O29494); assay: SPR; details: SPR: 10 mM HEPES pH 7.4, 150 mM NaCl, 1 mM MgCl2, 0.05% P20, 0.25 mM TCEP, 0.1 mg/ml BSA, 25 ug/ml yeast tRNA, 25 C; EMSA: 10 mM HEPES-KOH pH 7.5, 140 mM KCl …
[4] = target: T1, LS12 E34S (Archaeoglobus fulgidus scaffold, laboratory-evolved); assay: SPR; details: SPR: 10 mM HEPES pH 7.4, 150 mM NaCl, 1 mM MgCl2, 0.05% P20, 0.25 mM TCEP, 0.1 mg/ml BSA, 25 ug/ml yeast tRNA, 25 C, EMSA: 10 mM HEPES-KOH pH 7.5, 140 mM KCl …

AGAGGCAGAGAAAGGGAAACCUUGUGAGGCCUCU [Cy5-CS1]
Kd [1]: < 0.5 nM

AGAGGCAGAGAAGGAAACUUCCAUGACGCCUCU [Cy5-CS2]
Kd [2]: < 0.5 nM

GGAUCGCGUGAUCCGAAAGGUGACGAUCCAAAUCGACGAAAGACACAGAACG [Box C/D Kt (Kt_SPR)]
Kd [3]: 599 nM
Kd [4]: 14.5 nM

GGAUGCAGAGAACGAAAGUUCCAUGACGCAUCCAAAUCGACGAAAGACACAGAACG [CS2]
Kd [3]: 114 nM
Kd [4]: 0.00724 nM

GGAUGCAGAGAACGAAAGUUCCAUUACGCAUCCAAAUCGACGAAAGACACAGAACG [CS2-M3]
Kd [4]: 6.02 nM

GGCAGAGAAAGGCCAUACAAUCAUUGGCCUUGUGAGGCCGUGUGUCUUCCAGUGGCAUCGACGAAAGACACAGAACG [LS4-1]
Kd [3]: 0.0736 nM

GGCAGAGAAAGGCCAUACAAUCAUUGGCUUUUCCAUGACGCCAGUUCCAGUGGCAUCGACGAAAGACACAGAACG [LS12-1]
Kd [4]: 0.0105 nM

GGUGGCAAAGAAAGGCGAAAGCCUUGUGAGGCCAUCAAAUCGACGAAAGACACAGAACG [CS1-M2b]
Kd [3]: 0.0865 nM
Kd fold change relative to LS4 (fold higher Kd than LS4) [4]: 1270

GGUGGCAGAGAAAGGCGAAAGCCUUGUGAGGCCAUCAAAUCGACGAAAGACACAGAACG [CS1]
Kd [3]: 0.00682 nM
Kd ([4]; equilibrium analysis): 27.5 nM

GGUGGCAUAGAAAGGCGAAAGCCUUGUGUGGCCAUCAAAUCGACGAAAGACACAGAACG [CS1-M2]
Kd [3]: 2.21 nM
Kd ([4]; N.D. in Table S4): > 1000 nM

GGUGGCUGAGAAAGGCGAAAGCCUUGUGAUGCCAUCAAAUCGACGAAAGACACAGAACG [CS1-M1]
Kd [3]: 0.171 nM
Kd ([4]; equilibrium analysis): 7.7 nM
